One data set concerns the target XPA M32-4/70-2 (UniProt P23025 1-273, R30E;K31E;R32E;R34E;E106K;F112A). The data set is described as follows: MST.
For a further data set, the target named is XPA M32-4 (UniProt P23025 1-273, R30E;K31E;R32E;R34E). The data set is described as follows: MST.
Sequence of XPA M32-4 (P23025 whole entry R30E/K31E/R32E/R34E): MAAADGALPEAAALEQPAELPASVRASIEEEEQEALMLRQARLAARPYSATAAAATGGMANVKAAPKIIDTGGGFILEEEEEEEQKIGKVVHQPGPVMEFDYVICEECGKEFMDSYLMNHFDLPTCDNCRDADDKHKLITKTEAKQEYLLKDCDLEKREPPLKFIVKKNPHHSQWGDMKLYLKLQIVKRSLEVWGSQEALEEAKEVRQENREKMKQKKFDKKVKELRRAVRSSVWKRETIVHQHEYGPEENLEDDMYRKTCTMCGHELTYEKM

Sequence of XPA M32-4/70-2 (P23025 whole entry R30E/K31E/R32E/R34E/E106K/F112A): as the sequence (P23025 whole entry R30E/K31E/R32E/R34E) above, with E106K, F112A counted along it

In the case of TTTTGCGGCCGCTTTTGCGGCCGC (structured_DNA) [4-nt hairpin NER junction mimic], the Kd (usually the concentration at which binding is half-saturated) with XPA M32-4/70-2 stood at 10 ± 3 µM; with XPA M32-4, 8.4 ± 2.3 µM.
